A short description of the data set: total protein half-life in vivo (active degradation + dilution); higher = more stable protein.
The mark [1] stands for this setting: E. coli NCM3722 delta-clpP delta-lon delta-hslV, growth: N-lim chemostat, doubling time 6 h.
Setting [2] is: E. coli NCM3722 delta-clpP, growth: N-lim chemostat, doubling time 6 h.
The mark [3] stands for this setting: E. coli NCM3722 delta-hslV, growth: N-lim chemostat, doubling time 6 h.
[4] abbreviates: E. coli NCM3722 delta-lon, growth: N-lim chemostat, doubling time 6 h.
Setting [5] is: E. coli NCM3722 delta-smpB, growth: N-lim chemostat, doubling time 6 h.
[6] abbreviates: wild type E. coli NCM3722, growth: C-lim chemostat, doubling time 3 h.
Where [7] appears, read: wild type E. coli NCM3722, growth: C-lim chemostat, doubling time 6 h.
The mark [8] stands for this setting: wild type E. coli NCM3722, growth: C-lim chemostat, doubling time 12 h.
Setting [9] is: wild type E. coli NCM3722, growth: N-lim chemostat, doubling time 6 h.
[10] abbreviates: wild type E. coli NCM3722, growth: N-lim chemostat, doubling time 12 h.
Setting [11] is: wild type E. coli NCM3722, growth: P-lim chemostat, doubling time 6 h.
Setting [12] is: wild type E. coli NCM3722, growth: P-lim chemostat, doubling time 12 h.

± gives the standard deviation of the averaged measurements.

Take “MEKKIGFIGCGNMGKAILGGLIASGQVLPGQIWVYTPSPDKVAALHDQFGINAAESAQEVAQIADIIFAAVKPGIMIKVLSEITSSLNKDSLVVSIAAGVTLDQLARALGHDRKIIRAMPNTPALVNAGMTSVTPNALVTPEDTADVLNIFRCFGEAEVIAEPMIHPVVGVSGSSPAYVFMFIEAMADAAVLGGMPRAQAYKFAAQAVMGSAKMVLETGEHPGALKDMVCSPGGTTIEAVRVLEEKGFRAAVIEAMTKCMEKSEKLSKS [P0A9L8]”: the “total protein half-life in vivo” value reads like this: under setting [1], 6.83 ± 1.6 h; under setting [2], 5.45 ± 0.76 h; under setting [3], 5.12 ± 0.073 h; under setting [4], 5.68 ± 0.49 h; under setting [5], 5.54 ± 0.52 h; under setting [6], 3.01 ± 0.19 h. Besides, the “total protein half-life in vivo” value by setting is: under setting [7], 6.48 ± 1 h; under setting [8], 10.6 ± 2.5 h; under setting [9], 5.02 ± 0.91 h; under setting [10], 9.31 ± 1 h; under setting [11], 5.51 ± 0.83 h; under setting [12], 11.8 ± 0.66 h.

“MKFVDEASILVVAGDGGNGCVSFRREKYIPKGGPDGGDGGDGGDVWMEADENLNTLIDYRFEKSFRAERGQNGASRDCTGKRGKDVTIKVPVGTRVIDQGTGETMGDMTKHGQRLLVAKGGWHGLGNTRFKSSVNRTPRQKTNGTPGDKRELLLELMLLADVGMLGMPNAGKSTFIRAVSAAKPKVADYPFTTLVPSLGVVRMDNEKSFVVADIPGLIEGAAEGAGLGIRFLKHLERCRVLLHLIDIDPIDGTDPVENARIIISELEKYSQDLATKPRWLVFNKIDLLDKVEAEEKAKAIAEALGWEDKYYLISAASGLGVKDLCWDVMTFIIENPVVQAEEAKQPEKVEFMWDDYHRQQLEEIAEEDDEDWDDDWDEDDEEGVEFIYKR”: the “total protein half-life in vivo” value amounted to 5.72 ± 1.1 h under setting [1]; 4.17 ± 0.15 h under setting [2]; 2.39 ± 0.18 h under setting [3]; 2.44 ± 0.097 h under setting [4]; 2.185 ± 0.021 h under setting [5]; 2.27 ± 0.1 h under setting [6]. Moreover, the “total protein half-life in vivo” value worked out at 3.58 ± 0.14 h under setting [7]; 5.35 ± 0.73 h under setting [8]; 2.39 ± 0.11 h under setting [9]; 2.82 ± 0.035 h under setting [10]; 3.04 ± 0.22 h under setting [11]; 5.89 ± 0.39 h under setting [12].

Consider “MDYEFLRDITGVVKVRMSMGHEVVGHWFNEEVKENLALLDEVEQAAHALKGSERSWQRAGHEYTLWMDGEEVMVRANQLEFAGDEMEEGMNYYDEESLSLCGVEDFLQVVAAYRNFVQQK [P0A8E5]”, for which the “total protein half-life in vivo” value by setting is: under setting [1], 4.89 ± 0.087 h; under setting [3], 1.63 ± 0.034 h; under setting [4], 2 ± 0.21 h; under setting [5], 1.97 ± 0.039 h; under setting [6], 2.18 ± 0.056 h; under setting [7], 3.78 ± 0.4 h. Further, the “total protein half-life in vivo” value is, setting by setting: under setting [8], 6.328 ± 0.025 h; under setting [9], 1.78 h; under setting [10], 2.8 h; under setting [11], 2.44 ± 0.26 h; under setting [12], 4.45 ± 0.61 h.

For the sequence “MKFQAIVLASFLVMPYALADDQGGLKQDAAPPPPHAIEDGYRGTDDAKKMTVDFAKTMHDGASVSLRGNLISHKGEDRYVFRDKSGEINVVIPAAVFDGREVQPDQMINISGSLDKKSAPAVVRVTHLQK”, the “total protein half-life in vivo” value by setting is: under setting [1], 3.34 ± 0.2 h; under setting [2], 3.77 ± 0.45 h; under setting [3], 5.37 ± 0.2 h; under setting [6], 3.02 ± 0.51 h; under setting [7], 5.22 ± 0.22 h; under setting [8], 6.52 ± 1.8 h. Also, the “total protein half-life in vivo” value came to 5.18 ± 0.37 h under setting [9], 8.94 ± 0.26 h under setting [10], 4.33 ± 0.9 h under setting [11] and 7.82 ± 2.9 h under setting [12].

As for “MIQYLNVFFYDIYPYICATVFFLGSWLRYDYGQYTWRASSSQMLDKRGMVIWSNLFHIGILGIFFGHLFGMLTPHWMYAWFLPVAAKQLMAMVLGGICGVLTLIGGAGLLWRRLTNQRVRATSTTPDIIIMSILLIQCLLGLSTIPFSAQYPDGSEMMKLVGWAQSIVTFRGGSSEMLNGVAFVFRLHLVLGMTIFLLFPFTRLVHVWSAPFEYFTRRYQIVRSRR [P0AF32]”, the “total protein half-life in vivo” value turned out to be 6.36 ± 0.3 h under setting [1]; 7.27 ± 0.96 h under setting [3]; 5.71 ± 0.33 h under setting [4]; 6.54 h under setting [7]; 11 h under setting [8]; 10.7 ± 1.9 h under setting [10]. In addition, the “total protein half-life in vivo” value under setting [12] is 11.3 ± 1.8 h.

Take “MKKLINDVQDVLDEQLAGLAKAHPSLTLHQDPVYVTRADAPVAGKVALLSGGGSGHEPMHCGYIGQGMLSGACPGEIFTSPTPDKIFECAMQVDGGEGVLLIIKNYTGDILNFETATELLHDSGVKVTTVVIDDDVAVKDSLYTAGRRGVANTVLIEKLVGAAAERGDSLDACAELGRKLNNQGHSIGIALGACTVPAAGKPSFTLADNEMEFGVGIHGEPGIDRRPFSSLDQTVDEMFDTLLVNGSYHRTLRFWDYQQGSWQEEQQTKQPLQSGDRVIALVNNLGATPLSELYGVYNRLTTRCQQAGLTIERNLIGAYCTSLDMTGFSITLLKVDDETLALWDAPVHTPALNWGK”: the “total protein half-life in vivo” value amounted to 5.88 ± 0.29 h under setting [1]; 5.22 ± 0.51 h under setting [2]; 5.21 ± 0.23 h under setting [3]; 5.33 ± 0.57 h under setting [5]; 2.78 ± 0.28 h under setting [6]; 5.7 ± 0.2 h under setting [7]. Moreover, the “total protein half-life in vivo” value under setting [8] is 10.4 ± 0.73 h; the “total protein half-life in vivo” value under setting [9] was found to be 5.72 ± 0.15 h; the “total protein half-life in vivo” value under setting [10] is 10.3 ± 1.2 h; the “total protein half-life in vivo” value under setting [11] stood at 5.75 ± 0.93 h; the “total protein half-life in vivo” value under setting [12] worked out at 12.5 ± 0.43 h.
